T1: Hap-1742 (HapY), non-LEC1-type HAP3-like / NF-YB subunit of a CCAAT-box binding factor from Nannochloropsis … (Nannochloropsis gaditana)
T1 construct: also called Nannochloropsis NF-YB polypeptide
T1 chain: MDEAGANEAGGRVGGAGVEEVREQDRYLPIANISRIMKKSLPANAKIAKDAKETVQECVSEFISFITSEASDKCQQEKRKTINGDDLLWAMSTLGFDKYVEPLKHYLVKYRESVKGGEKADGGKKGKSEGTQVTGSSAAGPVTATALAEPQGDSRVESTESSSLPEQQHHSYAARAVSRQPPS

B1: EUKT6092, Nannochloropsis NF-YC polypeptide (other)
chain: MSGASGNGANPAVQQPYIPTDAEQAEHLQNLIRKLKDFWVEQLAEMETLSLASEQDFKNYIDLPLARIKRIMKSDEDVHMISAEVLVLFAKACEMFILELTIRSWCYSERSKRRTLQREDIQAAIANADILDFLVNIV
notes: Yeast two hybrid prey clone from a cDNA library in pGADT7-rec (Clontech), in yeast strain Y2HGold; also called NF-Y C subunit; HAP5 polypeptide
B2: EUKT1490, Nannochloropsis NF-YC polypeptide (other)
chain: MRLYRQIKKASMSRSPEVLQTSNSALSYASPSQAPSGAAIMMPTAPALPGRSTNTPNTQTGTEERKRDTPEGPKPSPLAGTPASMKAEEAPVSSKKARNAPIPPLSTSNAYVTEDTTLAIPRASIKRIMKLDPDTKQLSQDAIMVMAKATELFIDKLAKASHSMAVTNKRKTIKYEDIADARFSQKNMEFLDGVVPQIP
notes: as for B1
B3: NF-YA-1257 (EUKT1257), Nannochloropsis NF-Y subunit A (other)
chain: MDGAETGSGGDSDSGGGRKKIVRPCSSAETSLSMDVTATSYQGTNFNHMLSHGAPASAMVETHDGEGSLCPFPFQPPPHQQHNLQYQQPQEHQMQQTYYGQMNDDGNNFYDHSPHMEGFEPLGAPQEAAGSDLGPQPIFVNPKQYERIMKRREARARLENHRKIAAERKPFLHKSRHLHAVKRPRGPGGRFLTKEERIAWDEEQAQLEGTSTMGAVHVSNEVAAKTLYSSAQASIAAGPPLASQQGSRHASPPFSSPLSSSSCLPPSASTPVAPSGPSSYCSSSPII
notes: The open reading frame was cloned into prey vector pGADT7 (Clontech) and expressed in yeast strain Y2HGold; also called CBF-B/NF-YA

Key:
[1] = biological target: T1, Hap-1742 (HapY), non-LEC1-type …; test: yeast two hybrid screen, Hap-1742 bait against Nannochloropsis cDNA prey library
Method: Based on these numbers, it is estimated that more than 10 million interactions were tested.

[2] = biological target: T1, Hap-1742 (HapY), non-LEC1-type …; test: yeast two hybrid, NF-YA-1257 prey strain mated with Hap-1742 bait strain

Row | binding result [1] | binding result [2] | Binder
1 | binds |  | B1
2 | binds |  | B2
3 |  | binds | B3
